# Data taken from US12312397B2, “Anti-O2 antibodies and uses thereof” (priority 2016, dated 2025).
# B1: KPD1: Class I anti-O2 antigen human mAb; VH SEQ ID NO: 134, VL SEQ ID NO: 135 (antibody, V domains shown)
# VH: QVQLQESDPRLVKPSETLSLTCSVSGVSITSNTYWWAWIRQPPGKKLEWIGSLSYSGDTYYNPSLTSRVTISRDIHQNQFFLELNSVTAADTAMYYCARDPDIIRNFQFDYWGRGTLVTVSS
# VL: EIVLTQSPGILSLSPGERATLSCRVSQILYMSHLAWYQHKPGQAPRLLIYGASIRATGVPDRFSGSGSGTDFTLTISRLEPEDFAVYYCQQYGASPTFGQGTMVEIK
# modifications: Description of Artificial Sequence: SyntheticKPD1 VH polypeptide; Description of Artificial Sequence: SyntheticKPD1 VL polypeptide
# B2: KPN70: Class I anti-O2 antigen human mAb; VH SEQ ID NO: 44, VL SEQ ID NO: 45 (antibody, V domains shown)
# VH: QVQLQESGPGLVKPSETLSLTCTVSGGSISTYYWNWIRQSPGKELEWIANIHQSGTTYYNPSLKSRVTMSVDTSKNQFSLKVISVTAADTAVYYCARESDDGYKWNYFDYWGQGTLVTVSS
# VL: EIVLTQSPASLSLSPGERATLSCRASQIVTNYLAWYQHKPGQAPRLLIFDMSIRAAGIPARFSGSGSGTDFTLTISSLEPEDFAVYYCQHRSNWPLFTFGPGTKVDIK
# modifications: Description of Artificial Sequence: SyntheticKPN70 VH polypeptide; Description of Artificial Sequence: SyntheticKPN70 VL polypeptide
# Key:
# [1] = test system: O1 LPS; assay: ELISA binding to O1 LPS; set-up: species or system Klebsiella pneumoniae; conditions: secondary screening
# Procedure: The coated plates were incubated with cell culture supernatants from polyclonally stimulated lymphocytes (AMVBRA) or from monoclonal immortalized B cells (donor interrogations) containing fully human antibodies or with diluted plasma samples (PBMC donor selections) for 1 hour at room temperature. The plates were then washed with PBS containing 0.1% Tween-20 (PBS-T). Secondary antibody was added; either Alkaline Phosphatase-conjugated Goat Anti-Human IgG-AP (Southern Biotech, 2040-04, 1:1000 in PBS-B) or Peroxidase AffiniPure F(ab′)2 Fragment Goat Anti-Human IgG, Fc Fragment Specific (Jackson ImmunoResearch #309 036 098, 1:5000 in PBS-B) were used. Secondary antibodies were typically incubated for 1 h. Plates were washed three times with PBS-T, and P-NitroPhenyl Phosphate (pNPP, Sigma-Aldrich, cat #N2765-100TAB) or Sureblue (KPL, 53-00-03) substrates were added and incubated for 10 min or until the development of a colorimetric reaction. In the case of the HRP substrate Sureblue, the reaction was stopped by adding an equal volume of 0.2N HCl. The absorbance at 405 nm (pNPP) or 450 nm (Sureblue) was measured by a microplate reader (Biotek, Elx808).
# The coated plates were incubated with serial dilutions of the monoclonal antibodies for 1 hour at room temperature. The plates were then washed with PBS containing 0.1% Tween-20 (PBS-T). Alkaline Phosphatase-conjugated Goat Anti-Human IgG (Southern Biotech, 2040-04, 1:1000 in PBS-B) was added. The secondary antibody reactions were incubated for 1 h. Plates were washed three times with PBS-T, and P-NitroPhenyl Phosphate (pNPP, Sigma-Aldrich, cat #N2765-100TAB) substrate was added and incubated for 30 min or until the development of a colorimetric reaction. The absorbance at 405 nm was measured by a microplate reader (Biotek, Elx808). The data was plotted with Graphpad Prism software. Representative mAbs from each class were tested for their binding to O1 LPS (FIG. 2A) and O2 LPS (FIG. 2B), and EC50 values were obtained (FIG. 2C). The majority of the anti-O2 LPS mAbs bound to both O1 and O2 LPS by ELISA. […] None of these LPS mAbs bound to the 03, 04, 05, 07, or 012 LPS serotypes (see e.g., FIG. 1A).
# [2] = test system: O2 LPS; assay: ELISA binding to O2 LPS; set-up: species or system Klebsiella pneumoniae; conditions: secondary screening, ELISA
# How it was run: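 Serial dilutions of monoclonal antibodies bound to LPS-coated plates for 1 h at room temperature, detected with alkaline phosphatase-conjugated anti-human IgG (1 h) and pNPP substrate (30 min). Absorbance read at 405 nm; EC50 values derived from binding curves.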
# [3] = test system: O1 LPS activation of NF-κB in RAW264.7-lux cells; assay: LPS neutralization assay (NF-κB luciferase, RAW264.7-lux), O1 LPS; format: cell-based, murine; conditions: for neutralizing activity against O1 LPS (NF-κB activation): human IgG1 format; for neutralization of LPS-O1: secondary screening
# How it was run: (§1)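 Serially diluted mAbs (human IgG1) pre-mixed 1:1 with LPS at 4 °C for 1 hr, then diluted 1:10 onto RAW264.7-lux cells carrying an NF-κB-driven firefly luciferase; 2.5 h at 37 °C. Luminescence read; % inhibition relative to no-antibody and negative-control mAb wells.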
# [4] = test system: O2 LPS activation of NF-κB in RAW264.7-lux cells; assay: LPS neutralization assay (NF-κB luciferase, RAW264.7-lux), O2 LPS; format: cell-based, murine; conditions: for neutralizing activity against O2 LPS (NF-κB activation): human IgG1 format; for neutralization of LPS-O2: secondary screening
# How it was run: as §1
# [5] = test system: K. pneumoniae 8570ΔcpsBLux (O2); assay: Opsonophagocytic killing (OPK) assay, O2 capsule mutant; format: cell-based, Klebsiella pneumoniae; set-up: key to D Capsule OPK O2: +++: Strongly positive activity; +: Positive activity; +/−: Somewhat positive depending upon the test conditions
# How it was run: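 Luminescent capsule-deficient K. pneumoniae strains were mixed with DMF-differentiated HL-60 cells, 1:10 baby rabbit serum and anti-O2 LPS mAbs (2 ng–2.5 μg/mL), then shaken for 2 h at 37 °C. Killing % came from luminescence (RLU) against no-antibody and negative-control mAb wells, with >40% scored as positive.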
# [6] = test system: KPC strain Kp961842_O2; assay: Lethal pneumonia model, KPC strain Kp961842_O2; format: in vivo, Klebsiella pneumoniae; conditions: C57/BL6 mice, 2e8 CFU; mAb 2 mg/kg 1 hour post infection; survival
# Procedure: (§2) C57/BL6 mice were obtained from Jackson Laboratories and maintained in a special pathogen-free facility. All animal experiments were conducted in accordance with Institutional Animal Care and Use Committee (IACUC) protocol and guidance. K. pneumoniae strains were grown on agar plates overnight and diluted in saline at proper concentration. The inoculum titer was determined by plating a serial dilution of bacteria onto agar plates prior to and post challenge. In acute pneumonia models, C57/BL6 mice were inoculated with 1e4 to 2e8 colony-forming units (CFU) of K. pneumoniae clinical isolates in 50 μl saline intranasally. Anti-K pneumoniae monoclonal antibodies (mAbs) and human IgG1 control antibodies were given 1-24 hour post bacterial challenge (therapeutic dosing). Mouse survival was monitored daily until up to day 8. Survival data of representative experiments were plotted in Graphpad Prism software.
# (§3) Mice were challenged with 2e8 CFU of Klebsiella pneumoniae Carbanpenemase (KPC) strain Kp961842_O2 or with 3e8 CFU of KPC strain Kp977778_O2, followed by the administration of anti-O2 mAbs. When administered at a concentration of 2 mg/kg 1 hour post bacterial infection, Class III anti-O2 LPS mAbs KPN42, KPN179-IgG1, and KPS44v2017 protected mice from lethal bacterial challenge with the multi-drug resistant KPC strains Kp961842_O2 (FIG. 6, left panel, and FIG. 10) and Kp977778_O2 (FIG. 6B, right panel).
# [7] = test system: KPC strain Kp977778_O2; assay: Lethal pneumonia model, KPC strain Kp977778_O2; format: in vivo, Klebsiella pneumoniae; conditions: C57/BL6 mice, 3e8 CFU; mAb 2 mg/kg 1 hour post infection; survival
# Procedure: as §2, §3
# [8] = test system: O1 LPS; assay: Western blot of purified Klebsiella LPS serotypes, O1 LPS; format: binding, Klebsiella pneumoniae; conditions: FIG. 1A
# Excerpt: FIGS. 1A-B show the expansion of the O2 LPS serotype in multi-drug resistant (MDR) strains of Klebsiella pneumoniae.
# SDS-PAGE analysis followed by Silver Stain confirmed the purity of LPS. Human antibodies against O2 serotypes were then identified based on the reactivity of human B cells against the respective purified LPS. […] (FIG. 1A).
# [9] = test system: K. pneumoniae O1/O2; assay: Mouse protection models (O1/O2), Table 7 summary; format: in vivo, Klebsiella pneumoniae; set-up: key: +++: Strongly positive activity; +: Positive activity; +/−: Somewhat positive depending upon the test conditions; conditions: mouse pneumonia models
# Procedure: As described in more detail in below, anti-O2 LPS mAbs were tested for: 1) binding to O1 and O2 LPS (see Example 5); 2) LPS neutralization (LPS-Neut) against O1 and O2 LPS (see Example 7); 3) OPK against capsule mutant strain 43816ΔcpsB lux (O1) and 8570ΔcpsB lux (O2) (see Example 8); and 4) protective activity in pneumonia models (see Example 9). O2 LPS mAbs were subsequently divided into three classes based on their in vitro activities. Class I mAbs were characterized as Binding (O1+O2+)/OPK (O1−O2+); Class 2 mAbs were characterized as Binding (O1+O2+)/OPK (O1+O2+); and Class III mAbs were characterized as Binding (O1±O2+)/OPK (O1−O2+).
# as §2, with “Anti-K pneumoniae monoclonal antibodies (mAbs) and human IgG1 control antibodies were given 1-24 hour post bacterial challenge (therapeutic dosing).” left out, “Survival data of representative experiments were plotted in Graphpad Prism software.” left out
Molecule,binding to LPS-O1 [1],binding to LPS-O2 [2],neutralizing activity against O1 LPS (NF-κB activation) [3],neutralization of LPS-O1 [3],neutralizing activity against O2 LPS (NF-κB activation) [4],neutralization of LPS-O2 [4],OPK activity against O2 capsule mutant ([5]; secondary screening),"protection from lethal bacterial challenge, Kp961842_O2 [6]","protection from lethal bacterial challenge, Kp977778_O2 [7]",cross-reactivity with O1 LPS [8],D Capsule OPK O2 ([5]; capsule mutant strain 8570ΔcpsB lux (O2)),Mouse protection models (O1/O2) [9]
B1,showed binding,showed binding,blocked,neutralized,blocked,neutralized,showed OPK activity,did not protect,did not protect,showed cross-reactivity with O1 LPS,–,–
B2,–,–,blocked,neutralize,blocked,neutralize,–,did not protect,did not protect,–,+++,+/−
